From patent publication US11994512B2, “Single-cell genomic methods to generate ex vivo cell systems that recapitulate in vivo biology with improved fidelity” (Massachusetts Institute of Technology, priority 2018, dated 2024) come the findings set out here.

To fix the notation:
B1: Q8VEE1 (protein, UniProt Q8VEE1 1-365, looked up)
chain: MAKVAKDLNPGVQKMSLGQQQSARGVACLRCKGMCSGFEPHSWRKICKSCKCSQEEHCLSSDLDDDRKIGRLLMDSKYATLTARVKGGDGIRIYKRNRMIMTNPIATGKDPTFDTITYEWAPPGVTQKLGLQYMELIPKERQPVTGTEGALYRRRQLMHQLPIYDQDPSRCRGLVENELKAMEEFVKHYKSEALGVGEVALPGQGGLPKEENKTQEKPEGTETTAPTTNGSLGDPSKEVEYVCELCKGAAPVDSPVVYADRAGYSKQWHPTCFQCIKCSEPLVDLIYFWKDGAPWCGRHYCESVRPRCSGCDEIIFSEDYQRVEDLAWHRKHFICEGCEQLLSGRAYIVTKGQLLCPTCSKSKRS
modifications: full-length
B2: Q8VCT4 (protein, UniProt Q8VCT4 1-565, looked up)
chain: MGLYPLIWLSLAACTAWGYPSSPPVVNTVKGKVLGKYVNLEGFTQPVAVFLGVPFAKPPLGSLRFAPPQPAEPWSFVKNTTSYPPMCSQDAVGGQVLSELFTNRKENIPLQFSEDCLYLNIYTPADLTKNSRLPVMVWIHGGGLVVGGASTYDGLALSAHENVVVVTIQYRLGIWGFFSTGDEHSRGNWGHLDQVAALRWVQDNIANFGGNPGSVTIFGESAGGFSVSVLVLSPLAKNLFHRAISESGVSLTAALITTDVKPIAGLVATLSGCKTTTSAVMVHCLRQKTEDELLETSLKLNLFKLDLLGNPKESYPFLPTVIDGVVLPKAPEEILAEKSFSTVPYIVGINKQEFGWIIPTLMGYPLAEGKLDQKTANSLLWKSYPTLKISENMIPVVAEKYLGGTDDLTKKKDLFQDLMADVVFGVPSVIVSRSHRDAGASTYMYEFEYRPSFVSAMRPKAVIGDHGDEIFSVFGSPFLKDGASEEETNLSKMVMKFWANFARNGNPNGGGLPHWPEYDQKEGYLKIGASTQAAQRLKDKEVSFWAELRAKESAQRPSHREHVEL
modifications: full-length
B3: Q8K4R4 (protein, UniProt Q8K4R4 1-332, looked up)
chain: MLLKEYRICMPLTVDEYKIGQLYMISKHSHEQSDRGEGVEVVQNEPFEDPHHGNGQFTEKRVYLNSKLPSWARAVVPKIFYVTEKAWNYYPYTITEYTCSFLPKFSIHIETKYEDNKGSNDSIFDSEAKDLEREVCFIDIACDEIPERYYKESEDPKHFKSEKTGRGQLREGWRDNHQPIMCSYKLVTVKFEVWGLQTRVEQFVHKVVRDILLIGHRQAFAWVDEWYDMTMDEVREFERATQEATNKKIGVFPPAISISSIALLPSSVRSAPSSAPSTPLSTDAPEFLSIPKDRPRKKSAPETLTLPDPEKKATLNLPGVYTSEKPCRPKSE
modifications: full-length
B4: Q8K4B2 (protein, UniProt Q8K4B2 1-609, looked up)
chain: MAGRCGARGALSPQLLLFDLPPALLGELCGILDSCDGPLGWRGLAERLSNSWLDVRHIEKYVNQGKSGTRELLWSWAQKNKTIGDLLEVLQDMGHQRAIHLIINYGVSWTPSVQTHHELPFPSFPPEVKHACRENDPGPLEPANVTVDNVLVPEHNEKGTLQKTPISFQSILEGTKHFHKDFLIGEGEIFEVYRVDIRNQAYAVKLFKQEKKMQLKKHWKRFLSELEVLLLFRHPHILELAAYFTETEKLCLVYPYMSNGTLFDRLQCTNGTTPLSWHVRISVLIGIAKAIQYLHNTQPCAVICGNVSSANILLDDQLQPKLTDFAAAHFRPNLEQQSSTINMTGGGRKHLWYMPEEYIRQGRLSVKTDVYSFGIVIMEVLTGCKVVLDDPKHVQLRDLLMELMEKRGLDSCLSFLDRKIPPCPRNFSAKLFSLAGRCVATKAKLRPTMDEVLSSLESTQPSLYFAEDPPTSLKSFRCPSPLFLDNVPSIPVEDDENQNNHSVPPKEVLGTDRVTQKTPFECSQSEVTFLGLDRNRGNRGSEADCNVPSSSHEECWSPELVAPSQDLSPTVISLGSSWEVPGHSYGSKPMEKRCSSGLFCSEHEQSKKQ
modifications: full-length
B5: Q8R550 (protein, UniProt Q8R550 1-709, looked up)
chain: MVEAIVEFDYQAQHDDELTISVGEVITNIRKEDGGWWEGQINGRRGLFPDNFVREIKKDMKKDLLSNKAPEKPMHDVSSGNALLSSETILRTNKRGERRRRRCQVAFSYLPQNDDELELKVGDIIEVVGEVEEGWWEGVLNGKTGMFPSNFIKELSGESDELGISQDEQLSKSRPEGFLPASLLPFPAHGAKGKTTFEGTILYRAAPGKTEGHRRYYSLRETTGSESDGGDSSSTKSEGANGTMATAAIQPKKVKGVGFGDIFKDKPIKLRPRSIEVENDFLPVEKTIGKKLPPATSTPDPSKTEMDSRTKTKDYCKVIFPYEAQNDDELTIKEGDIVTLINKDCIDVGWWEGELNGRRGVFPDNFVKLLPSDFDKEGNRPKKPPPPSAPVVKQGAGTTERKHEIKKIPPERPETLPNRTEEKERPEREPKLDLQKPSVPAIPPKKPRPPKTNSLNRPGALPPRRPERPVGPLTHTRGDSPKIDLAGSALSGILDKDLSDRSNDIDLEGFDSVISSTEKLSHPTTSRPKATGRRPPSQSLTSSSLSSPDIFDSPSPEEDKEEHISLAHRGIDVSKKTSKTVTISQVSDNKTSLPPKPGTMAAASSGPASLSSVASSPMSSSLGTAGQRASSPSLFSTEGKPKMEPAVSSQAAIEELKMQVRELRTIIETMKDQQKREIKQLLSELDEEKKIRLRLQMEVNDIKKALQSK
modifications: full-length
B6: Q8VE33 (protein, UniProt Q8VE33 1-370, looked up)
chain: MATPNNLTPTNCSWWPISALESDAAKPVETPDAPEASSPAHWPKESLVLYHWTQSFSSQKRLQVRLVIAEKGLACEERDVSLPQSEHKEPWFMRLNLGEEVPVIIHRDNIISDYDQIIDYVERTFTGEHVVALMPEAGSPQHARVLQYRELLDALPMDAYTHGCILHPELTTDSMIPKYATAEIRRHLANATTDLMKLDHEEEPQLSEPYLSKQKKLMAKILEHDDVSYLKKILGELAMVLDQIEAELEKRKLENEGQTCELWLCGCAFTLADVLLGATLHRLKFLGLSKKYWEDGSRPNLQSFFERVQRRFAFRKVLGDIHTTLLSAVIPNAFRLVKRKPPSFFGASFLMGSLGGMGYFAYWYLKKKYI
modifications: full-length
B7: Q8VCI0 (protein, UniProt Q8VCI0 1-550, looked up)
chain: MCHRSPGRSLRPPSPLLLLLPLLLQPPWAAGAASQSDPTGVHCATAYWSPESKKVEIKTVLDKNGDAYGYYNDSIKTTGWGILEIRAGYGSQVLSNEIIMFLAGYLEGYLTALHMYDHFTNLYPQLIKNPSIVKKVQDFMEKQEMWTRQNIKAQKDDPFWRHTGYVVTQLDGLYLGAQKRASEEKIKPMTMFQIQFLNAVGDLLDLIPSLSPTKSSSMMKFKIWEMGHCSALIKVLPGFENIYFAHSSWYTYAAMLRIYKHWDFNIKDKYTLSKRLSFSSYPGFLESLDDFYILSSGLILLQTTNSVYNKTLLKQVVPKTLLAWQRVRVANMMAEGGKEWAQIFSKHNSGTYNNQYMVLDLKKVTINRSLDKGTLYIVEQIPTYVEYSDQTNVLRKGYWASYNIPFHKTIYNWSGYPLLVHKLGLDYSYDLAPRAKIFRRDQGNVTDMASMKYIMRYNNYKEDPYSKGDPCSTICCREDLNGASPSPGGCYDTKVADIFLASQYKAYAISGPTVQDGLPPFNWNRFNETLHRGMPEVFDFNFVTMKPILS
modifications: full-length
B8: Q8VHC3 (protein, UniProt Q8VHC3 1-145, looked up)
chain: MSILLSPPSLLLLLAALVAPATSTTNYRPDWNRLRGLARGRVETCGGUQLNRLKEVKAFVTEDIQLYHNLVMKHLPGADPELVLLSRNYQELERIPLSQMTRDEINALVQELGFYRKSAPEAQVPPEYLWAPAKPPEEASEHDDL
modifications: full-length

The first experiment relates to intracellular proteome of ENR+CD and ENR organoids. Description: LC-MS/MS TMT proteomics of ENR+CD versus ENR organoids. The class given is cell-based, C57BL/6 mice. To be noted: ENR+CD versus ENR organoids, sample pairs in aggregate (n=4, 2 technical replicates from two biological donors).
Consider B1, for which the “Average logFC” value is −1.258.
For the molecule B2, the “Average logFC” value is given as −1.924.
Take B3: the “Average logFC” value is given as 1.235.
Regarding B4, the “Average logFC” value is 1.198.
For the molecule B5, the “Average logFC” value worked out at 1.492.
Turning to B6, the “Average logFC” value stood at 1.453.
As to B7, the “Average logFC” value is listed as −1.188.
As to B8, the “Average logFC” value is on record as 1.481.

Still in this experiment, the particulars now being: protein abundance ratio ENR+CD versus ENR organoids, sample pair M1-1; LC-MS/MS TMT proteomics.
Turning to B1, the “M1-1 Log2 Median Normalized” value is −1.327.
Take B2: the “M1-1 Log2 Median Normalized” value is on record as −1.923.
The same measure, in the same setting: the same measure for B3: 1.072; for B4: 1.448.
Turning to B5, the “M1-1 Log2 Median Normalized” value is recorded as 1.738.
For the molecule B6, the “M1-1 Log2 Median Normalized” value is reported as 2.102.
Take B7: the “M1-1 Log2 Median Normalized” value was −1.187.
With B8, the “M1-1 Log2 Median Normalized” value is given as 1.688.

Still in this experiment, the particulars now being: protein abundance ratio ENR+CD versus ENR organoids, sample pair M1-2; LC-MS/MS TMT proteomics.
For B1, the “M1-2 Log2 Median Normalized” value is −1.525.
As to B2, the “M1-2 Log2 Median Normalized” value is recorded as −1.965.
Take B3: the “M1-2 Log2 Median Normalized” value worked out at 0.913.
As for B4, the “M1-2 Log2 Median Normalized” value stood at 0.943.
For the molecule B5, the “M1-2 Log2 Median Normalized” value came to 1.082.
On the same count and under the same terms, the figure for B6 is 0.932.
Turning to B7, the “M1-2 Log2 Median Normalized” value is on record as −1.193.
Turning to B8, the “M1-2 Log2 Median Normalized” value worked out at 1.48.

Still in this experiment, the particulars now being: protein abundance ratio ENR+CD versus ENR organoids, sample pair M2-1; LC-MS/MS TMT proteomics.
On to B1, for which the “M2-1 Log2 Median Normalized” value is given as −1.0345.
For B2, the “M2-1 Log2 Median Normalized” value is −2.3285.
As for B3, the “M2-1 Log2 Median Normalized” value was 1.6335.
Same read-out and setting: the figure for B4 is 1.1955; for B5 it is 1.8435.
On the same count and under the same terms, the figure for B6 is 1.1705; for B7 it is −1.4105.
With B8, the “M2-1 Log2 Median Normalized” value is listed as 1.1495.

The same experiment, now with this note: protein abundance ratio ENR+CD versus ENR organoids, sample pair M2-2; LC-MS/MS TMT proteomics.
As for B1, the “M2-2 Log2 Median Normalized” value is −1.145.
For B2, the “M2-2 Log2 Median Normalized” value is listed as −1.001.
For B3, the “M2-2 Log2 Median Normalized” value came to 1.321.
Consider B4, for which the “M2-2 Log2 Median Normalized” value was found to be 1.204.
For the molecule B5, the “M2-2 Log2 Median Normalized” value is recorded as 1.303.
In the case of B6, the “M2-2 Log2 Median Normalized” value is on record as 1.609.
In the case of B7, the “M2-2 Log2 Median Normalized” value is reported as −0.754.
In the case of B8, the “M2-2 Log2 Median Normalized” value stood at 1.521.

The same experiment, now with this note: up = enriched in ENR+CD, down = enriched in ENR; FDR<0.05 and log fold change cut-off.
For the molecule B1, the change result is listed as “down”.
On the same count and under the same terms, the same measure for B2: “down”; for B3: “up”.
In the case of B4, the change result is listed as “up”.
B5: the change result is on record as “up”.
With B6, the change entry is given as “up”.
Consider B7, for which the change result is “down”.
For B8, the change entry is recorded as “up”.
